Assay results reported in PMC8670446.

Molecular target: His-tagged luciferase, heat-aggregated on the BLI sensor [luciferase: P08659]
Assay: BLI; protein aggregate immobilised on the sensor (His-tagged luciferase on Ni-NTA); Ssa1 variant together with Sis1 WT in solution, 1 µM each unless specified differently; buffer A (25 mM Hepes-KOH pH 8.0, 75 mM KCl, 15 mM MgCl2) with 2 mM DTT and 5 mM ATP; the signal is that of both chaperones

His-tagged luciferase, heat-aggregated on the BLI sensor [luciferase: P08659], sequence (P08659 whole entry): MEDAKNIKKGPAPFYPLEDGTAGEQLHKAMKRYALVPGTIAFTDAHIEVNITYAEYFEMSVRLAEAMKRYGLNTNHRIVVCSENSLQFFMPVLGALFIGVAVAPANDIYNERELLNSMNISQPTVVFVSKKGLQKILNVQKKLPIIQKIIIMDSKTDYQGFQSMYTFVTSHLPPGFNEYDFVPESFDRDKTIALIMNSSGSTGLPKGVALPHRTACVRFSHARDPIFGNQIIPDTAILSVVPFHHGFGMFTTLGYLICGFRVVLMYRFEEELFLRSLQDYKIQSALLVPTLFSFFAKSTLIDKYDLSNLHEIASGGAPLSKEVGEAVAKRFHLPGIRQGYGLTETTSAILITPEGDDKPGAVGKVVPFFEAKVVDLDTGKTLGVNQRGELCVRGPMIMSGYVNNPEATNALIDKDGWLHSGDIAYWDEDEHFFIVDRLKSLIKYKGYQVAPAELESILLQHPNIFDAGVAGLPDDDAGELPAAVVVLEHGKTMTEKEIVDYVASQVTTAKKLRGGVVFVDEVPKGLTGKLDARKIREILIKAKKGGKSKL
Ssa1, sequence (P10591 whole entry): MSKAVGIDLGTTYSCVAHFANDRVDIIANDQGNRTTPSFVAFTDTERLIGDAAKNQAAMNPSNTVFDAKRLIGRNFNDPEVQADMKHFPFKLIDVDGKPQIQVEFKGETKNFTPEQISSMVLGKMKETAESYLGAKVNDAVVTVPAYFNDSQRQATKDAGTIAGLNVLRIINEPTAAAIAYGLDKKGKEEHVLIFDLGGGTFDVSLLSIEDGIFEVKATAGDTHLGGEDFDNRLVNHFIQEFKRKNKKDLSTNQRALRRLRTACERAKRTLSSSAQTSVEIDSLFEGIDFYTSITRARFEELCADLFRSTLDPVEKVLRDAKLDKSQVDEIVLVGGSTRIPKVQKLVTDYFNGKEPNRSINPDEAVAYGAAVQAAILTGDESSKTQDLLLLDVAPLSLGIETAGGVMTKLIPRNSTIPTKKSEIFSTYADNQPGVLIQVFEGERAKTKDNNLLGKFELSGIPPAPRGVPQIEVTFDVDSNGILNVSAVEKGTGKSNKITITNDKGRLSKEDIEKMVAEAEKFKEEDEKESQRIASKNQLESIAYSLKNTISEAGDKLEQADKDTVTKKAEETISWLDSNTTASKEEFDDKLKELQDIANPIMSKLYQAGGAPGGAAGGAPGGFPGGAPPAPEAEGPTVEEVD

- BLI layer thickness (Sis1 and Ssa1 together): 7 nm
Substance: Ssa1 (from UniProt P10591 1-642) (natural protein)
